The source of these data is paper PMC3145545 (Molecular Biology of the Cell, 2011).

As usually defined, the stoichiometry N is the number of molecules, sites or subunits per partner or assembly.

Sequences and labels used below:
B1: Pac11 1-86 VQ51,52DA (site 1 mutant) (domain or fragment)
chain: MERLKQLEEKRRQLKELRERRKQASLFPGSETMGHHPTEVHAKATMVSVSDATDMEEGSKIQEPQSAYLRRKEVITYDKGIQTDQI
B2: Pac11 1-86 IQ81,82DA (site 2 mutant) (domain or fragment)
chain: MERLKQLEEKRRQLKELRERRKQASLFPGSETMGHHPTEVHAKATMVSVSVQTDMEEGSKIQEPQSAYLRRKEVITYDKGDATDQI
B3: Drosophila LC8 (dynein light chain) (natural protein)
chain: MSDRKAVIKNADMSEEMQQDAVDCATQALEKYNIEKDIAAYIKKEFDKKYNPTWHCIVGRNFGSYVTHETRHFIYFYLGQVAILLFKSG

For assay [1], the target named is B3. Briefly: native gel or EMSA.
Assay [2] concerns the target B2. Briefly: AUC.
For assay [3], the target named is B1. Briefly: AUC.

For the molecule B1, the binding result in assay [1] is given as “binds”.
As to B2, in assay [1], the binding result is on record as “binds”.
Take B3: the “stoichiometry N” value in assay [2] and in assay [3] was 1 LC8 per Pac11 in each case.
